{"source": "paper doi:10.1101/2023.03.23.533910", "about": "(bioRxiv, 2023)", "proteins": {"B1": {"name": "3xHA-tagged SNC1 (natural protein, Arabidopsis thaliana, UniProt O23530 1-1437, looked up)", "chain": "MMDTSKDDDMEIASSSGSRRYDVFPSFRGEDVRDSFLSHLLKELRGKAITFIDDEIERSRSIGPELLSAIKESRIAIVIFSKNYASSTWCLNELVEIHKCYTNLNQMVIPIFFHVDASEVKKQTGEFGKVFEETCKAKSEDEKQSWKQALAAVAVMAGYDLRKWPSEAAMIEELAEDVLRKTMTPSDDFGDLVGIENHIEAIKSVLCLESKEARIMVGIWGQSGIGKSTIGRALYSKLSIQFHHRAFITYKSTSGSDVSGMKLRWEKELLSEILGQKDIKIEHFGVVEQRLKQQKVLILLDDVDSLEFLKTLVGKAEWFGSGSRIIVITQDRQLLKAHEIDLIYEVEFPSEHLALTMLCRSAFGKDSPPDDFKELAFEVAKLAGNLPLGLSVLGSSLKGRTKEWWMEMMPRLRNGLNGDIMKTLRVSYDRLHQKDQDMFLYIACLFNGFEVSYVKDLLKDNVGFTMLTEKSLIRITPDGYIEMHNLLEKLGREIDRAKSKGNPGKRRFLTNFEDIHEVVTEKTGTETLLGIRLPFEEYFSTRPLLIDKESFKGMRNLQYLEIGYYGDLPQSLVYLPLKLRLLDWDDCPLKSLPSTFKAEYLVNLIMKYSKLEKLWEGTLPLGSLKEMNLRYSNNLKEIPDLSLAINLEELDLVGCKSLVTLPSSIQNATKLIYLDMSDCKKLESFPTDLNLESLEYLNLTGCPNLRNFPAIKMGCSDVDFPEGRNEIVVEDCFWNKNLPAGLDYLDCLTRCMPCEFRPEQLAFLNVRGYKHEKLWEGIQSLGSLEGMDLSESENLTEIPDLSKATKLESLILNNCKSLVTLPSTIGNLHRLVRLEMKECTGLEVLPTDVNLSSLETLDLSGCSSLRSFPLISTNIVWLYLENTAIEEIPSTIGNLHRLVRLEMKKCTGLEVLPTDVNLSSLETLDLSGCSSLRSFPLISESIKWLYLENTAIEEIPDLSKATNLKNLKLNNCKSLVTLPTTIGNLQKLVSFEMKECTGLEVLPIDVNLSSLMILDLSGCSSLRTFPLISTNIVWLYLENTAIEEIPSTIGNLHRLVKLEMKECTGLEVLPTDVNLSSLMILDLSGCSSLRTFPLISTRIECLYLQNTAIEEVPCCIEDFTRLTVLMMYCCQRLKTISPNIFRLTRLELADFTDCRGVIKALSDATVVATMEDHVSCVPLSENIEYIWDKLYRVAYLQEHFSFRNCFKLDRDARELILRSCFKPVALPGEEIPKYFTYRAYGDSLTVIVPQSSLSQNFLRFKACVVVEPLSKGKGFYPFLKVNVGFNGKQYQKSFSKDAELELCKTDHLFFCSFKFRSEDLPSKLNFNDVEFKFCCSNRIKECGVRLMYVSQEENNQQTTRSEKRMRMTSGTSEEDINLPYGLIVADTGLAALNMELSLGQGEPSSSTSLEGEALCVDYMITEEQDKGIPILFPVSGN"}}, "target": "the molecule itself", "assay": "native gel or EMSA"}
{"protein": "B1", "values": [{"measurement": "stoichiometry N", "value": "~4"}]}
